This passage reports pKd results from article PMC9482650, “Quantitative fragmentomics allow affinity mapping of interactomes” (Nature Communications, 2022).

Usually pKd stands for the negative decadic logarithm of the Kd, by convention in mol/L.

One experiment addresses NOS1, P29475. Briefly: holdup assay. Also on record: key: below the threshold = too weak to quantify, mostly under pKd 3.1 to 4.
In a further experiment the target is HTRA1, Q92743. Briefly: holdup assay. Also on record: key: below the threshold = too weak to quantify, mostly under pKd 3.1 to 4.
Chain of HTRA1, Q92743 (Q92743 360-477): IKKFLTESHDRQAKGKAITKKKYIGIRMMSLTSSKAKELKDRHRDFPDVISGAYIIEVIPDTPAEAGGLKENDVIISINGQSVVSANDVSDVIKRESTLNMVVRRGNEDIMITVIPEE
Where [1] appears, read: plain residues with an end cap or a label only (N-terminal biotin on a linker: ado-ado).
[2] abbreviates: plain residues with an end cap or a label only (N-terminal biotin on a linker: ahx).

Chain of NOS1, P29475 (P29475 9-101): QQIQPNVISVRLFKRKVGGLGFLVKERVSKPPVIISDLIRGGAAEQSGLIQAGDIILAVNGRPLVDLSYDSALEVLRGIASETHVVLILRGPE

QSGLYESEEL [MYOT, Q9UBF9]: the pKd result with NOS1, P29475 (setting [1]) is “below the threshold”; in the experiment with HTRA1, Q92743 (setting [1]) it was 4.17.

NTANRRTTPV [CACNG2, Q9Y698]: the pKd with NOS1, P29475 (setting [1]) is 3.99; with HTRA1, Q92743 (setting [1]), “below the threshold”. With RQKEVRESKC [SCN8A, Q9UQD0], the pKd result with NOS1, P29475 (setting [1]) is given as “below the threshold”; with HTRA1, Q92743 (setting [1]), “below the threshold”. With IDESKKEWLI [CNTNAP2, Q9UHC6], the pKd was 4.21 with NOS1, P29475 (setting [1]) and 5.31 with HTRA1, Q92743 (setting [1]).

For QPRTWLQSPV [RTKN, Q9BST9], the pKd in the experiment with NOS1, P29475 (setting [2]) is 3.6; with HTRA1, Q92743 (setting [2]) it was “below the threshold”. As for LKDDELKTKL [SLCO1A2, P46721], the pKd with NOS1, P29475 (setting [1]) was 3.5; with HTRA1, Q92743 (setting [1]), “below the threshold”. Take QNTDDVQTSF [ACE2, Q9BYF1]: the pKd entry with NOS1, P29475 (setting [2]) is listed as “below the threshold”; in the experiment with HTRA1, Q92743 (setting [2]), “below the threshold”. Consider PSHPRLQTHV [KIRREL2, Q6UWL6], for which the pKd result with NOS1, P29475 (setting [1]) is reported as “below the threshold”; in the experiment with HTRA1, Q92743 (setting [1]) it was “below the threshold”. Regarding SRSVVESDEL [MYPN, Q86TC9], the pKd result with NOS1, P29475 (setting [1]) was “below the threshold”; in the experiment with HTRA1, Q92743 (setting [1]), 3.69. The like results for AQRARSPSDV [GPR12, P47775] were, in that order, 3.75 and “below the threshold”. In the case of TQKFRASTAL [FRMPD1, Q5SYB0], the pKd with NOS1, P29475 (setting [2]) is 3.72; in the experiment with HTRA1, Q92743 (setting [2]), “below the threshold”. PYSESDDDWC [CACNA1A, O00555]: the pKd amounted to 3.48 in the experiment with NOS1, P29475 (setting [1]) and 4.53 in the experiment with HTRA1, Q92743 (setting [1]).

With DRIQSCLSDA [SBF1, O95248], the pKd result in the experiment with NOS1, P29475 (setting [1]) is “below the threshold”; with HTRA1, Q92743 (setting [1]) it was “below the threshold”. Consider SFISKKEWYV [NECTIN1, Q15223], for which the pKd in the experiment with NOS1, P29475 (setting [1]) stood at 3.6; with HTRA1, Q92743 (setting [1]), 5.24. Turning to QDEKVKESYV [ABCA1, O95477], the pKd with NOS1, P29475 (setting [2]) came out at 3.66; in the experiment with HTRA1, Q92743 (setting [2]) it was 4.28. Turning to EIPAQSPTCV [FZD10, Q9ULW2], the pKd with NOS1, P29475 (setting [1]) was 4.17; with HTRA1, Q92743 (setting [1]), 4.57. Turning to KRPEMTSSSV [MUC3A, MUC3B, Q02505;Q9H195], the pKd result in the experiment with HTRA1, Q92743 (setting [1]) was “below the threshold”. Consider PSVGSKKTVL [REELD1, A0A1B0GV85], for which the pKd in the experiment with NOS1, P29475 (setting [1]) worked out at 3.64; in the experiment with HTRA1, Q92743 (setting [1]) it was 3.55. For the molecule GEDRSPPTAL [MKNK1, Q9BUB5], the pKd in the experiment with NOS1, P29475 (setting [1]) is 3.8; in the experiment with HTRA1, Q92743 (setting [1]) it was “below the threshold”. As for SVTSERETNI [SLC16A7, O60669], the pKd result with NOS1, P29475 (setting [1]) is listed as “below the threshold”; with HTRA1, Q92743 (setting [1]) it was “below the threshold”. For the molecule NISYRRESAI [KCNJ4, P48050], the pKd with NOS1, P29475 (setting [1]) is 3.62; with HTRA1, Q92743 (setting [1]) it was “below the threshold”. As to KKMLQRRTLL [OR8G1, Q15617], the negative logarithm of the Kd (pKd) with NOS1, P29475 (setting [1]) is 3.92; in the experiment with HTRA1, Q92743 (setting [1]) it was “below the threshold”.

Regarding GIKKITSTAL [RPS6KA3, P51812], the pKd with NOS1, P29475 (setting [1]) worked out at 4.03; with HTRA1, Q92743 (setting [1]), 3.58.

Take AEASVACSLC [PTGIR, P43119]: the pKd result with NOS1, P29475 (setting [1]) was “below the threshold”; with HTRA1, Q92743 (setting [1]), 3.93. Turning to NNNVVKVDSV [MTNR1A, P48039], the pKd with NOS1, P29475 (setting [1]) is 3.86; with HTRA1, Q92743 (setting [1]), “below the threshold”. Turning to DTKNYKQTSV [CRIPT, Q9P021], the pKd with NOS1, P29475 (setting [1]) was 3.63; with HTRA1, Q92743 (setting [1]), “below the threshold”.

For the molecule ARGPPRESEV [FAM110D, Q8TAY7], the pKd with NOS1, P29475 (setting [1]) is 3.77; in the experiment with HTRA1, Q92743 (setting [1]), “below the threshold”. In the case of QRPYRRGSEI [KCNJ18, B7U540], the pKd amounted to 3.56 in the experiment with NOS1, P29475 (setting [1]) and 3.85 with HTRA1, Q92743 (setting [1]).

For NVYGIESVKI [GRIA2, P42262], the pKd with NOS1, P29475 (setting [1]) was 3.71; with HTRA1, Q92743 (setting [1]), 4.25. Take DPAESMESLV [PTPRG, P23470]: the negative logarithm of the Kd (pKd) in the experiment with NOS1, P29475 (setting [1]) was found to be 3.74; with HTRA1, Q92743 (setting [1]) it was 4.41.

As to NTLNRKTTPV [CACNG8, Q8WXS5], the pKd with NOS1, P29475 (setting [1]) was 4.04; with HTRA1, Q92743 (setting [1]), “below the threshold”. As for EDGESWEYQI [TRPV6, Q9H1D0], the pKd entry with NOS1, P29475 (setting [1]) is “below the threshold”; with HTRA1, Q92743 (setting [1]), 4.45.

For the molecule ARSAAASNYV [CLDN4, O14493], the pKd was determined as 3.82 with NOS1, P29475 (setting [1]) and 4.17 with HTRA1, Q92743 (setting [1]). For DFLSTFHIRI [CIB2, O75838], the pKd result in the experiment with NOS1, P29475 (setting [1]) was “below the threshold”; with HTRA1, Q92743 (setting [1]) it was 4.15.

Consider KSRVAFFEEL [NF2, P35240;P35240-1], for which, in the experiment with HTRA1, Q92743 (setting [1]), the pKd is 4.51.

In the case of PTPDLPQTRV [KLHDC7A, Q5VTJ3], the pKd entry in the experiment with NOS1, P29475 (setting [1]) is listed as “below the threshold”; with HTRA1, Q92743 (setting [1]), “below the threshold”. With TISFTQTSQF [SLC1A1, P43005], the pKd in the experiment with NOS1, P29475 (setting [1]) is 3.53; with HTRA1, Q92743 (setting [1]), “below the threshold”. In the case of LPAVCYDIDI [PTTG2, Q9NZH5], the pKd entry with NOS1, P29475 (setting [1]) was “below the threshold”; in the experiment with HTRA1, Q92743 (setting [1]) it was 3.9.
